The target of this experiment is T1, alpha1b adrenergic receptor (expressed in Pichia pastoris, membranes) (Homo sapiens (Human)), P35368.
T1 chain: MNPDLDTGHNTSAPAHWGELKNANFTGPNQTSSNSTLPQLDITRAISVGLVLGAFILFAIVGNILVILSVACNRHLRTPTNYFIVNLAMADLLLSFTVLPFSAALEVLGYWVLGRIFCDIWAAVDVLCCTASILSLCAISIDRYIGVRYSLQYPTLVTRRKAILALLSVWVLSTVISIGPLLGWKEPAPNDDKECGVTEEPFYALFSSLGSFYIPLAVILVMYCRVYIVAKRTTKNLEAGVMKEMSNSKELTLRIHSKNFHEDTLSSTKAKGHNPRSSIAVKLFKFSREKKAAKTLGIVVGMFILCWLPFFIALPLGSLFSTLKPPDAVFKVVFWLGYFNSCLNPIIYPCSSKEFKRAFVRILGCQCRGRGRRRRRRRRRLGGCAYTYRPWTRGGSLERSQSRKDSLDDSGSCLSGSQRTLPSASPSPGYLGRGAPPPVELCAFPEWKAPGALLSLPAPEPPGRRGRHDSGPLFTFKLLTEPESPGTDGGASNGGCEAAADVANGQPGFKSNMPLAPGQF
Briefly: displacement of 3H-prazosin (1 nM) from yeast membranes, filtration.

B1: AdTx1 peptide (peptide)
peptide: LTCVTSKSIFGITTEDCPDGQNLCFKRRHYVVPKIYDSTRGCAATCPIPENYDSIHCCKTDKCNE
modifications: not checked
By IC50 is commonly meant the point on the concentration scale where inhibition reaches its midpoint. The low end stands for greater potency in that assay, the high end for weaker potency in that assay. Regarding B1, the IC50 was found to be 2.3 µM.

Source of the values: US20110117017A1, “PEPTIDES WITH PROPERTIES OF AN […] FOR THE ALPHA 1A […] RECEPTOR AND USES THEREOF” (priority 2006, published 2011).
